Reference: patent US20240254222A1 (Bayer, published 2024)

T1: Cyno Semaphorin3A-Sema Domain, TPP-19122 (cynomolgus (Macaca fascicularis), UniProt Q63548 21-569 (rat entry), limits assumed)
T1 construct: produced inhouse
T1 chain: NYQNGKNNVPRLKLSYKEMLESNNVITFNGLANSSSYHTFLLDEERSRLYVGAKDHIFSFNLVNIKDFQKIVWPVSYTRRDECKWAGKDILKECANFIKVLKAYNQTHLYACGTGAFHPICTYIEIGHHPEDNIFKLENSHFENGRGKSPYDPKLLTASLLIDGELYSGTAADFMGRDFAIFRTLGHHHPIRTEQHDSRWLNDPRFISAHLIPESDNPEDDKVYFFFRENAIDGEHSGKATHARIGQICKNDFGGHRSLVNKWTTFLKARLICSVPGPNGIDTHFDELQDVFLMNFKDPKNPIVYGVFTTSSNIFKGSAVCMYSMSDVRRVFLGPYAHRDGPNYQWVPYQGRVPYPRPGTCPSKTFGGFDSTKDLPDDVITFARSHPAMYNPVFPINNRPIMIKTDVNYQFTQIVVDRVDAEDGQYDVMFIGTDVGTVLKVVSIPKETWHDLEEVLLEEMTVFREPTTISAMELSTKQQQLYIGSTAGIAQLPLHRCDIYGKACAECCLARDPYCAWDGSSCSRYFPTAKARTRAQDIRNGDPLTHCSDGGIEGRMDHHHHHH

T2: Human Semaphorin3A-Sema Domain, TPP-19068 (human, UniProt Q14563 21-569)
T2 construct: produced inhouse in HEK293-6E; also called human monovalent Sema3A domain
T2 sequence: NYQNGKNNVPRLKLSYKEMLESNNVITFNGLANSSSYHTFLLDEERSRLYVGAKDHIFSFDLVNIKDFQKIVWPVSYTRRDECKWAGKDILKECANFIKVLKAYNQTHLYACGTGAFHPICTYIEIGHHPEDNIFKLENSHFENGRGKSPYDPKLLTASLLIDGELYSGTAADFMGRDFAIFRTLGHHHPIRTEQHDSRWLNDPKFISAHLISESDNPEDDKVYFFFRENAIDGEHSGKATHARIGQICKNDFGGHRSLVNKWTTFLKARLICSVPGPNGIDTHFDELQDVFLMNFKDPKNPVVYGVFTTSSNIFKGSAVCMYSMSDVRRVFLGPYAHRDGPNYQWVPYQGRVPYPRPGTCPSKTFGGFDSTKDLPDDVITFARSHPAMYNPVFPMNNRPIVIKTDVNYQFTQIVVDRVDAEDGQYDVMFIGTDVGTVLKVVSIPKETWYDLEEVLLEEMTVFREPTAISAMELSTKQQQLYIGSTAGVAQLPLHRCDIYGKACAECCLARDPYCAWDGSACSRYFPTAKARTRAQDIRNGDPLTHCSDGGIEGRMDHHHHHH


How the values were obtained:
[1] = molecular target: Human Semaphorin3A-Fc (R&D Systems), TPP-13211 (human); assay: cell-based or functional assay
[2] = molecular target: T1, Cyno Semaphorin3A-Sema Domain, TPP-19122; assay: SPR, captured antibody, Sema3A domain analyte
Method in brief: (§1)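 Kinetics fitted to a 1:1 Langmuir model after double referencing; glycine pH 2.0 regeneration. Sema3A domain analytes (several species) ran at […]-3.125 nM multi-cycle or single 100 nM; Fc-tagged Sema3A at 1.56-200 nM over Fab-captured antibody, otherwise Fc capture. Buffer HBS P+ plus 300 mM NaCl, CaCl₂, MgCl₂, BSA, 25° C.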

[3] = molecular target: T2, Human Semaphorin3A-Sema Domain, …; assay: SPR, captured antibody, Sema3A domain analyte
Method in brief: as §1

[4] = molecular target: T3, Human Semaphorin3A-Fc (R&D Systems), TPP-13211 (human); assay: ELISA, coated Sema3A-Fc, antibody 0.00015-10 ug/ml
T3 construct: R&D Systems 1250-S3; also called recombinant human Sema3A-Fc chimera
T3 sequence (chain, as listed by the source limits assumed): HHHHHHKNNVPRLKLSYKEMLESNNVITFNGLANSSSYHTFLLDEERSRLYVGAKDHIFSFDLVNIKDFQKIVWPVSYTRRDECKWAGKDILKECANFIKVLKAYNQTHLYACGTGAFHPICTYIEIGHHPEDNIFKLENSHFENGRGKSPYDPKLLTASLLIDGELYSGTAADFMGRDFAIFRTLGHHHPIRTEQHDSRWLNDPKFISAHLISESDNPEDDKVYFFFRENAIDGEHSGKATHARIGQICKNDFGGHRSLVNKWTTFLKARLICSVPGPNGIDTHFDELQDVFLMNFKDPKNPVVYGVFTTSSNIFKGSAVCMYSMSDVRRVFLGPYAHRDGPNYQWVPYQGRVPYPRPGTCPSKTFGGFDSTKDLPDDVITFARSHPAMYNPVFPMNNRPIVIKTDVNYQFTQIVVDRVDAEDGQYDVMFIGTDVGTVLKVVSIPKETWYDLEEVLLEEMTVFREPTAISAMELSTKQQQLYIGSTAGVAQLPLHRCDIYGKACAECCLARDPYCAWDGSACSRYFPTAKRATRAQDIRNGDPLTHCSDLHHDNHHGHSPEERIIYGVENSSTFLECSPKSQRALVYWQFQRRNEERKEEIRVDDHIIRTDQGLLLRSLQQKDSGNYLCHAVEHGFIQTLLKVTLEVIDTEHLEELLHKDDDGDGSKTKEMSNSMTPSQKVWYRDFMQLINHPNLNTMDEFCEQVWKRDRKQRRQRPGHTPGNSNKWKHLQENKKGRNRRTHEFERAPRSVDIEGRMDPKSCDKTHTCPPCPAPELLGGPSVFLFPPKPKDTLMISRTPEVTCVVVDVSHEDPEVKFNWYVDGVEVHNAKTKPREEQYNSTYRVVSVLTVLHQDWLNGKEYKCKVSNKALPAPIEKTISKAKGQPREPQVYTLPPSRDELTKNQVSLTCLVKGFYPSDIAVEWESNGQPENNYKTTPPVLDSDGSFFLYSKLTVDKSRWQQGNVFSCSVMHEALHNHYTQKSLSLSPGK
Experimental: For the assessment of binding selectivity to Sema3A vs Sema3G, 1 nM recombinant human Sema3A-Fc chimera (R&D Systems) or recombinant human GST—Sema3G (Abnova) were coated on Maxisorb plates, incubated with antibodies in a dose-response curve from 0.00015-10 μg/ml, and the binding of antibodies quantified using HRP coupled anti-human antiserum and chemiluminescent substrate.

[5] = molecular target: T3, Human Semaphorin3A-Fc (R&D Systems), …; assay: competition ELISA on coated TPP-13211, competitor biotinylated TPP-15370
Experimental: For screening in a competition ELISA setup, human Sema3a (TPP-13211) was coated onto 384-well plates (Greiner bio-one, 781077) with a concentration of 0.5 μg/ml in coating buffer (Carbonate-Basis pH 9.6, Candor 121125) over night at 10° C. After washing the plates 3 times with 50 μl PBS 0.05% Tween the plates were blocked with 50 μl Smart Block® (Candor 113500) for 1 h at 20° C. and washed again 3 times as described.
Subsequently, 20 μl of pre-mixed antibody solution was added to the plates and incubate for 18 h at 10° C. […] The total concentration of the added antibody solution was 0.25 μg/ml. During the incubation time the antibodies bound to the plates in a competitive manner as they compete for the same epitope on the human Sema3A protein.
After subsequent washing with 50 μl PBS 0.05% Tween for 3 times, 20 μl of a Streptavidin-HRP solution (R&D Systems, DY998, 1:200 in PBS 0.05% Tween 10% Smart Block) were added and incubated for 1 h and 20° C. followed by subsequent washing 3 times with 50 μl PBS 0.05% Tween and addition of 20 μl Amplex Red solution (Invitrogen A12222, 1:1000 in NaP-buffer 50 mM pH7.6 with 1:10000 of 30% H2O2). After a final incubation for 20 min at 20° C. the signal was determined using an emission wavelength of 595 nm and excitation of 530 nm.

| Binder | EC50 [nM], MCM assay [1] | Kd [2] | Kd [3] | EC50 [4] | VAL norm to TPP-9809 (1 to 1 ratio) [5] | VAL norm to TPP-9809 (1 to 5 ratio) [5] |
| --- | --- | --- | --- | --- | --- | --- |
| TPP-23337 (antibody, human IgG4 S228P, lambda, V domains shown) VH: EVQLLESGGGLVQPGGSLRLSCAASGFTFSSYAMSWVRQAPGKGLEWVSAIGYGGDTYYADSVKGRFTISRDNSKNTLYLQMNSLRAEDTAVYYCARRDDYTSRDAFDYWGQGTLVTVSS VL: not shown | 0.33 nM | 0.026 nM | 0.05 nM | 15.5 nM | 0.27 | 0.14 |
| TPP-23373 (antibody, human IgG4 S228P, lambda, V domains shown) VH: EVQLLESGGGLVQPGGSLRLSCAASGFTFYSYAMSWVRQAPGKGLEWVSAIGYGGDTYYADSVKGRFTISRDNSKNTLYLQMNSLRAEDTAVYYCARRDDYTSRDAFDYWGQGTLVTVSS VL: not shown | 0.63 nM | 0.072 nM | 0.11 nM | 17.6 nM | 0.35 | 0.2 |
| TPP-23298 (antibody, human IgG4 S228P, lambda, V domains shown) VH: EVQLLESGGGLVQPGGSLRLSCAASGFTFYSYAMSWVRQAPGKGLEWVSAIGTGGDTYYADSVKGRFTISRDNSKNTLYLQMNSLRAEDTAVYYCARRDDYTSRDAFDYWGQGTLVTVSS VL: not shown | 0.4 nM | 0.078 nM | 0.087 nM | 1.6 nM | 0.18 | 0.09 |
| TPP-23334 (antibody, human IgG4 S228P, lambda, V domains shown) VH: EVQLLESGGGLVQPGGSLRLSCAASGFTFSSYAMSWVRQAPGKGLEWVSAIGYGGDTYYADSVKGRFTISRDNSKNTLYLQMNSLRAEDTAVYYCARRDDYTSRDAFDYWGQGTLVTVSS VL: not shown | 0.67 nM | 0.015 nM | 0.021 nM | 9.2 nM | 0.28 | 0.11 |
| TPP-23347 (antibody, human IgG4 S228P, lambda, V domains shown) VH: EVQLLESGGGLVQPGGSLRLSCAASGFTFYSYAMLWVRQAPGKGLEWVSAIGTGGDTYYADSVKGRFTISRDNSKNTLYLQMNSLRAEDTAVYYCARRDDYTSRDAFDYWGQGTLVTVSS VL: not shown | 0.67 nM | 0.054 nM | 0.06 nM | 8.4 nM | 0.3 | 0.16 |
| TPP-23340 (antibody, human IgG4 S228P, lambda, V domains shown) VH: EVQLLESGGGLVQPGGSLRLSCAASGFTFSSYAMSWVRQAPGKGLEWVSAIGYGGDTYYADSVKGRFTISRDNSKNTLYLQMNSLRAEDTAVYYCARRDDYTSRDAFDYWGQGTLVTVSS VL: not shown | 0.87 nM | 0.06 nM | 0.022 nM | 12.3 nM | 0.4 | – |
| TPP-23338 (antibody, human IgG4 S228P, lambda, V domains shown) VH: EVQLLESGGGLVQPGGSLRLSCAASGFTFSSYAMSWVRQAPGKGLEWVSAIGYGGDTYYADSVKGRFTISRDNSKNTLYLQMNSLRAEDTAVYYCARRDDYTSRDAFDYWGQGTLVTVSS VL: not shown | 0.6 nM | 0.042 nM | 0.054 nM | 9.6 nM | 0.33 | – |
| TPP-23341 (antibody, human IgG4 S228P, lambda, V domains shown) VH: EVQLLESGGGLVQPGGSLRLSCAASGFTFSSYAMSWVRQAPGKGLEWVSAIGYGGDTYYADSVKGRFTISRDNSKNTLYLQMNSLRAEDTAVYYCARRDDYTSRDAFDYWGQGTLVTVSS VL: not shown | 0.9 nM | 0.087 nM | 0.091 nM | 21.3 nM | 0.38 | 0.18 |
| TPP-30788 (antibody, human IgG1, kappa, V domains shown, prior art, WO 2020/225400; also called BI clone I; Böhringer (BI) Clone I) VH: EVQLVESGGGLVQPGGSLRLSCAASGFTFSSYYMSWVRQAPGKGLEWVSTIIKSGGYAYYPDSVKDRFTISRDNSKNTLYLQMSSLRAEDTAVYYCVRGGQGAMDYWGQGTTVTVSS VL: EIVLTQSPATLSLSPGERATLSCRASQSIGDYLHWYQQKPGQAPRLLIKYASQSISGIPARFSGSGSGTDFTLTITSLEPEDFAVYYCQQGYSFPYTFGGGTKLEIKR | 1.43 nM | 0.078 nM | 0.018 nM | 0.15 nM | – | – |
| TPP-30789 (antibody, human IgG1, kappa, V domains shown, prior art, WO 2020/225400; also called BI clone II; Böhringer (BI) Clone II) VH: EVQLVESGGGLVQPGGSLRLSCAASGFPFSSYYMSWVRQAPGKGLEWVSTIIKSGGYAYYPDSVKDRFTISRDNSKNTLYLQMSSLRAEDTAVYYCVRGGQGAMDYWGQGTTVTVSS VL: EIVLTQSPATLSLSPGERATLSCRASQSIGDYLHWYQQKPGQAPRLLIKYASQSISGIPARFSGSGSGTDFTLTITSLEPEDFAVYYCQQGYSFPYTFGGGTKLEIKR | – | 0.079 nM | 0.022 nM | 0.1 nM | – | – |
| TPP-30791 (antibody, human IgG1, kappa, V domains shown, prior art, WO 2020/225400; also called BI clone IV; Böhringer (BI) Clone IV) VH: EVQLVESGGGLLQLGGSLRLSCAASGFTFSSYYMSWVRQAPGKGLEWVSTIIKSGGYAYYPDSVKDRFTISRDNSKNTLNLQMNSLRAEDTAVYYCVKGGQGAMDYWGQGTTVTVSS VL: EIVLTQSPATLSLSPGERATLSCRASQSIGDYLHWYQQKPGQAPRLLIKYASQSISGIPARFSGSGSGTDFTLTISSLEPEDFAVYYCQQGYSFPYTFGGGTKLEIKR | – | 0.057 nM | 0.012 nM | 0.08 nM | – | – |
| TPP-30790 (antibody, human IgG1, kappa, V domains shown, prior art, WO 2020/225400; also called BI clone III; Böhringer (BI) Clone III) VH: EVQLVESGGGLVQLGGSLRLSCAASGFTFSSYYMSWVRQAPGKGLEWVSTIIKSGGYAYYPDSVKDRFTISRDNSKNTLYLQMNSLRAEDTAVYYCVKGGQGAMDYWGQGTTVTVSS VL: EIVLTQSPATLSLSPGERATLSCRASQSIGDYLHWYQQKPGQAPRLLIYYASQSISGIPARFSGSGSGTDFTLTISSLEPEDFAVYYCQQGYSFPYTFGGGTKLEIKR | – | 0.077 nM | 0.015 nM | 0.08 nM | – | – |
